In assay [1] the target is T1, MUC1 (MUC1-C) on cells (UniProt P15941 24-1255). In words: flow.
Assay [2] deals with T1, MUC1 (MUC1-C) on cells. Kind of assay: flow. This is another data set of the same source.

Where two headings read alike, the source gives them in different places.

B1: T4E3 scFv-Fc (Fc fusion)
VH: QVQLVQSGGGLVQPGGSLRLSCAASGFTFDDYAMHWVRQAPGKGLEWVSGISWNSGSIGYADSVKGRFTISRDNAKNSLYLQMNSLRAEDTALYYCAKDIGSGSYYNYYYGMDVWGQGTTATISS
VL: SSELTQDPAVSVALGQTVRITCQGDSLRSYYASWYQQKPGQAPVLVIYGKNSRPSGIPDRFSGSNSGSTASLTITGAQAEDEADYYCNSRDRYGNSLVIFGGGTKLTVL
Regarding B1, the EC50 in the assay with MUC1 (MUC1-C) on cells [1] and in the assay with MUC1 (MUC1-C) on cells [2] was 0.033 µg/mL in each case.

The record behind these values is patent publication US12448462 (dated 2025).
